Data taken from IntAct's records for PubMed 29467281.

B1: Unconventional myosin-VI (Homo sapiens), Q9UM54-1 (parent)
chain: MEDGKPVWAPHPTDGFQMGNIVDIGPDSLTIEPLNQKGKTFLALINQVFPAEEDSKKDVEDNCSLMYLNEATLLHNIKVRYSKDRIYTYVANILIAVNPYFDIPKIYSSEAIKSYQGKSLGTRPPHVFAIADKAFRDMKVLKMSQSIIVSGESGAGKTENTKFVLRYLTESYGTGQDIDDRIVEANPLLEAFGNAKTVRNNNSSRFGKFVEIHFNEKSSVVGGFVSHYLLEKSRICVQGKEERNYHIFYRLCAGASEDIREKLHLSSPDNFRYLNRGCTRYFANKETDKQILQNRKSPEYLKAGSMKDPLLDDHGDFIRMCTAMKKIGLDDEEKLDLFRVVAGVLHLGNIDFEEAGSTSGGCNLKNKSAQSLEYCAELLGLDQDDLRVSLTTRVMLTTAGGTKGTVIKVPLKVEQANNARDALAKTVYSHLFDHVVNRVNQCFPFETSSYFIGVLDIAGFEYFEHNSFEQFCINYCNEKLQQFFNERILKEEQELYQKEGLGVNEVHYVDNQDCIDLIEAKLVGILDILDEENRLPQPSDQHFTSAVHQKHKDHFRLTIPRKSKLAVHRNIRDDEGFIIRHFAGAVCYETTQFVEKNNDALHMSLESLICESRDKFIRELFESSTNNNKDTKQKAGKLSFISVGNKFKTQLNLLLDKLRSTGASFIRCIKPNLKMTSHHFEGAQILSQLQCSGMVSVLDLMQGGYPSRASFHELYNMYKKYMPDKLARLDPRLFCKALFKALGLNENDYKFGLTKVFFRPGKFAEFDQIMKSDPDHLAELVKRVNHWLTCSRWKKVQWCSLSVIKLKNKIKYRAEACIKMQKTIRMWLCKRRHKPRIDGLVKVGTLKKRLDKFNEVVSVLKDGKPEMNKQIKNLEISIDTLMAKIKSTMMTQEQIQKEYDALVKSSEELLSALQKKKQQEEEAERLRRIQEEMEKERKRREEDEKRRRKEEEERRMKLEMEAKRKQEEEERKKREDDEKRIQAEVEAQLARQKEEESQQQAVLEQERRDRELALRIAQSEAELISDEAQADLALRRNDGTRPKMTPEQMAKEMSEFLSRGPAVLATKAAAGTKKYDLSKWKYAELRDTINTSCDIELLAACREEFHRRLKVYHAWKSKNKKRNTETEQRAPKSVTDYDFAPFLNNSPQQNPAAQIPARQREIEMNRQQRFFRIPFIRPADQYKDPQSKKKGWWYAHFDGPWIARQMELHPDKPPILLVAGKDDMEMCELNLEETGLTRKRGAEILPRQFEEIWERCGGIQYLQNAIESRQARPTYATAMLQSLLK
partner: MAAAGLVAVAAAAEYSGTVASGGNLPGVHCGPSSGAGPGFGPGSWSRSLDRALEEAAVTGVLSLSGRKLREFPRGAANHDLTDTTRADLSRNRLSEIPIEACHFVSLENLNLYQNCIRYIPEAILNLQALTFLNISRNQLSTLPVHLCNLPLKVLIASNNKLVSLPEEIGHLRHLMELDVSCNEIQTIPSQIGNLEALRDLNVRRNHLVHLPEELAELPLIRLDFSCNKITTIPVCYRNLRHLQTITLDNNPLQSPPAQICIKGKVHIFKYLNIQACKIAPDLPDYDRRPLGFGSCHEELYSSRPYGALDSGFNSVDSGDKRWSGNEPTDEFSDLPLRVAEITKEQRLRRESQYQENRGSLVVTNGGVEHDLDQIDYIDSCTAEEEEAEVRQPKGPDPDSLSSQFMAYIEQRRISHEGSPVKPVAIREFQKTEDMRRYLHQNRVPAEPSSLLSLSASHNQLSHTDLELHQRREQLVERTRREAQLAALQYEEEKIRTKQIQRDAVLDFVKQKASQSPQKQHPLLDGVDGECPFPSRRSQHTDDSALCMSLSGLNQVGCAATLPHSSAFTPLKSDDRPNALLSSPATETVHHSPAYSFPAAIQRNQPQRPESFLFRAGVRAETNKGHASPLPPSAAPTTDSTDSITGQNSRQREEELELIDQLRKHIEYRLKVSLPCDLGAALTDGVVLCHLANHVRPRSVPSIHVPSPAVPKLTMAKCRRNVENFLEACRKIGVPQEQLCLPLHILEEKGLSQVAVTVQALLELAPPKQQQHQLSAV

Variants of: B1
Conditions: with lrch3_human LRCH3, Q96II8
For R1107A;R1108A;L1109A, the “effect of a mutation on the interaction” value was “disrupting interaction strength”.
W1192L was tested, and the “effect of a mutation on the interaction” value was “disrupting interaction strength”.
